This series concerns the molecule itself. Briefly: cryo-EM structure; single-particle analysis of the defined assemblies from SEC with localized reconstruction (O, C4, C1); 201phi2-1 about 4 µM monomer, Goslar about 33 µM monomer.

A word on the stoichiometry N: it is a count of units in the complex or per binding partner.

Several values for one entry are separate records, joined by “and”; a condition that tells them apart may be missing. Equal values may be shown once.

B1: Goslar chimallin (gp189), full length, recombinant (natural protein, bacteriophage Goslar, UniProt A0A482GDX1 1-631, looked up)
chain: MGLDVRNNGNDNVEIRAAETRTAQRADEALETAADFAGQPKVTHTMRTINRTLSRRISRNTGSEQVLNLRRLMEKYLEDTRFKDDFIFVAVDPNQYSVPYPTLVVMSGAKVGDHNHFFGYVLPLVAGLAPLPRREEQGPHGNILVPRTWVDNLNGTFINEVMAAMYAAIGGKSNGTARIAGLAVVTNEITAESAHLATTLLSAADNAIQTAIEIRLGDKLGLPQFNLGMMASDQPISSVQYNTSGMQDSDIVGNPVRSDITVTISNRIRQAMSDYDSQQRLVATTGYIDLTYSPQNPTFNQGPVLVNGYPVPPTVQYQPRYVMTSAYPLELDAFTPNTFVLGLIGTIATLNSGMAWAQSLISNAARGIGPHNPGALAMVLDPEVTAPLDLSTQTNEQIYKFLQQVLYPSLLISIDVPEEGEYSWLLRMIPAAEKIYTGKVEGEVREISEGYKALYRAFDDVTLGCFSKKYQYGLPLVYATGNRIPLGHYNHQDGHRHDIRDMDDLYMMNITNPDTVEAWEDSFDRTDMTMSQRVVARHEIIDRVLSGSWEQTGWAMRYDFDPLALQALIEAAADAGFTIRPENIQHLAGTAVRGNMAARARGLGNISGNIYARSDRPNVGVNNMGGAFNLF
notes: Chimallin (gp189) of E. coli jumbo bacteriophage Goslar, 631 amino acids, NCBI YP_009820873.1; Cloned in UC Berkeley Macrolab vector 2-BT (Addgene #29666) with a TEV-cleavable His6 tag; tag removed before SEC; not shown: His6, N-terminal, cleaved
For B1, the “stoichiometry N” value was determined as 24 protomers.

B2: 201phi2-1 chimallin (gp105), full length, recombinant (natural protein, bacteriophage 201phi2-1, UniProt B3FIW8 1-631, looked up)
chain: MIRDTATNTTQTQAAPQQAPAQQFTQAPQEKPMQSTQSQPTPSYAGTGGINSQFTRSGNVQGGDARASEALTVFTRLKEQAVAQQDLADDFSILRFDRDQHQVGWSSLVIAKQISLNGQPVIAVRPLILPNNSIELPKRKTNIVNGMQTDVIESDIDVGTVFSAQYFNRLSTYVQNTLGKPGAKVVLAGPFPIPADLVLKDSELQLRNLLIKSVNACDDILALHSGERPFTIAGLKGQQGETLAAKVDIRTQPLHDTVGNPIRADIVVTTQRVRRNGQQENEFYETDVKLNQVAMFTNLERTPQAQAQTLFPNQQQVATPAPWVASVVITDVRNADGIQANTPEMYWFALSNAFRSTHGHAWARPFLPMTGVAKDMKDIGALGWMSALRNRIDTKAANFDDAQFGQLMLSQVQPNPVFQIDLNRMGETAQMDSLQLDAAGGPNAQKAAATIIRQINNLGGGGFERFFDHTTQPILERTGQVIDLGNWFDGDEKRDRRDLDNLAALNAAEGNENEFWGFYGAQLNPNLHPDLRNRQSRNYDRQYLGSTVTYTGKAERCTYNAKFIEALDRYLAEAGLQITMDNTSVLNSGQRFMGNSVIGNNMVSGQAQVHSAYAGTQGFNTQYQTGPSSFY
notes: Cloned in UC Berkeley Macrolab vector 2-BT (Addgene #29666) with a TEV-cleavable His6 tag; tag removed before SEC; also called ChmA; FL; not shown: His6, N-terminal, cleaved
Consider B2, for which the “stoichiometry N” value is 24 protomers and 40 protomers.

Values taken from publication PMC9365700, “Architecture and self-assembly of the jumbo bacteriophage nuclear shell” (Nature, 2022).
